Biological target: TSH receptor on mouse alveolar macrophage AM cells (AMJ2-C8) (mouse) (UniProt P47750)
Assay: cell-based or functional assay

UniProt P47750, sequence (P47750 22-764): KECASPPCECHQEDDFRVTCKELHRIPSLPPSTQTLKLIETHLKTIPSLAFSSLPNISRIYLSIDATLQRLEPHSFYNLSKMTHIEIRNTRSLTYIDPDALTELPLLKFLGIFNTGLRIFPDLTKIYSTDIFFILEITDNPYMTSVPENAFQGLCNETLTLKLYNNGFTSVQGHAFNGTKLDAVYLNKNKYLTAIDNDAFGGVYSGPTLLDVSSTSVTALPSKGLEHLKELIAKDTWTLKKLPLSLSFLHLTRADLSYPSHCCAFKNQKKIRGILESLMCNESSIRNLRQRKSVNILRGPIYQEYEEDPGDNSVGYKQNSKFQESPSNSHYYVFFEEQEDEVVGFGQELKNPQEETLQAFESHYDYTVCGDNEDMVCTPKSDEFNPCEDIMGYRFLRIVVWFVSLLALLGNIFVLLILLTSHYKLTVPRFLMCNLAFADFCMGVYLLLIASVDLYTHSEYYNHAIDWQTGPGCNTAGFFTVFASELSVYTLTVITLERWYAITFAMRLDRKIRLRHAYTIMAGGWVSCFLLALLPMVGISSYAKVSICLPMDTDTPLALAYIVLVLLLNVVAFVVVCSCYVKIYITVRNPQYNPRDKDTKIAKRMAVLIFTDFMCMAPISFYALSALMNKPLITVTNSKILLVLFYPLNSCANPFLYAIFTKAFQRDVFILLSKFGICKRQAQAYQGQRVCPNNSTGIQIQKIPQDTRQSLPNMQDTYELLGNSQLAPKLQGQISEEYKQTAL

cAMP response of AM cells; concentration of peak activity [nM]	Substance
0.1	recombinant mouse native TSHβ (from UniProt P12656 21-138) (ligand)
1000	recombinant mouse novel TSHβ splice variant (from UniProt P12656 55-138) (ligand)
